Data from patent US20020022718A1, “Genes identified as required for proliferation of E. coli” (priority 1999, published 2002).

B1: EcXA167: antisense clone insert to E. coli gatB (nucleic acid, listed as Escherichia coli)
antisense: TATAGGGGNCTATTTCATTAACCCGACACTGGATTAATTCAACAGGAATATTATGATTCTGACACAACTCTTTAATTTCTTCCGCCGCCATCGTAGAGGTCGCAACCGCGCCTCCGCAAGCGACAATAATCTTGCGTTTCATA
modifications: misc_feature (1)...(143): n = A,T,C or G
notes: antisense clone insert to E. coli gatB
B2: EcXA164: antisense clone insert to E. coli glpC (nucleic acid, listed as Escherichia coli)
antisense: TGTCGACATTCAGCACTTCCGGGTATTCGTCGCGCAGGGCAAATGTACAGGTTGAGGAGGTG
B3: EcXA166: antisense clone insert to E. coli yihE (nucleic acid, listed as Escherichia coli)
antisense: AAACGCATGGCGCGTAAAGGTTCAATCAGTCCGATTTCAGCGGTGTCGAACTCGCTAAATTCTTCA
B4: EcXA163: antisense clone insert to E. coli yidC (nucleic acid, listed as Escherichia coli)
antisense: GAAGAGATGTTCAGGTTTTCGTTATCGGCAATGGTATCGAACTTGTATTTCTCATACTTCTCGTCAGGCGTGGAGTACGCCGCGCCACGGAA
B5: EcXA165: antisense clone insert to E. coli ybeJ (nucleic acid, listed as Escherichia coli)
antisense: ACTTATCAAACCATTTTTCCGCTTCACCGGAGGTCTGCACCTGAGCGATGGTGTCATCCATCAGCTTTTTGA
B6: EcXA169: antisense clone insert to E. coli rpsE (nucleic acid, listed as Escherichia coli)
antisense: AGAGCTGTGAAGGAGAAAATACGACCACCTTTAACGGTTTTAGATACGCGGTTTACCGCGATCAGCTTTTCCTGCAGTTCGCCAGCTTGTTTTTCGATGTGAGCCATCTTACACCTCT
B7: EcXA168: antisense clone insert to E. coli b1721 (nucleic acid, listed as Escherichia coli)
antisense: GAGGAACCGTGTGACACACAAAGGGTGATTATTTTCCATTGCGGCGTATAATCCTGGCTCACCATCATGTATTTTCATGGCTAAAATACTCATCACCAGTTTTTTGTTTAAAAGCTCTTGTGCTATTGGAGTGGTTAATGCATTCAGAAAGATATCGATTATTTCATCGAATCCATACAACATGGAGATATAAAGTCCAGGTGTTTCGTT
B8: EcXA171: antisense clone insert to E. coli b0876 (nucleic acid, listed as Escherichia coli)
antisense: AGCGCCGGTAACGCCCGTTAAATGTTCTCGTTCGGCTTCCCGATCGTTATTCAACAGGCTGCGTACCGTAGCGGCATATTTCTTCCCTGCTTCATCGCCATC
B9: EcXA162: antisense clone insert to E. coli yjgV (nucleic acid, listed as Escherichia coli)
antisense: AAAGGTTCGGCAAAAGCCATAACCTTTTCGTCAGCTTTGGCCGGATAAGGGACACATTGCGACGTTTCGACCATTTTATAACGGGTAAAACCACCATCAACATGAGGGAAATACATGGCACTGCCAAAAAAACGCATATCTGTACACTGATTCTCGTTATGTTCAATGCAGTATTTGCAGTGACCGCACGGTTTAGACGGATTAATGGCTACCGTTTGCCCTTCATGTAATTCTGA
B10: EcXA174: antisense clone insert to E. coli endA (nucleic acid, listed as Escherichia coli)
antisense: GCCNGGCGGGAACCGACATGTTCCCACTCTACGCCGGCTGGCGCGGTTTTCATTTTTGCGCACCTGATAGCCGCACGATTGCAGATCAACAACGCCTTTTTTG
B11: EcXA173: antisense clone insert to E. coli yhhJ (nucleic acid, listed as Escherichia coli)
antisense: GCCACGCCCAGCATAAACAGCGGGATCGAGCCTTCAATCGGTACGCCCAGTACACCTTTCACCATCAGCACCAGCGATAATCC

Tested on: Klebsiella pneumoniae
Assay: Growth inhibition by induced E. coli antisense RNA in Klebsiella pneumoniae
Format: cell-based
Design: key: +: a positive in Table V below means that at least 10 fold more cells were required to observe a colony on the induced plate than on the non-induced plate; −: If there was no effect of antisense RNA expression in a microorganism, the clone is minus in Table V below
Settings: antisense RNA expression induced with IPTG, serial dilution plating
Method in brief: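 An E. coli antisense fragment (b3052 portion), or other E. coli-inhibitory antisense clones, was expressed in each species on IPTG induction (1 mM). Serial 10-fold dilutions were spotted on selective agar with or without IPTG overnight. The score is the log difference in maximal colony-forming dilution, induced vs uninduced (0 = no effect; positive = at least 10-fold).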

Molecule	Sensitivity of K. pneumoniae to antisense nucleic acid (growth inhibition, induced vs. uninduced)
B1	−
B2	−
B3	−
B4	−
B5	−
B6	−
B7	−
B8	−
B9	−
B10	−
B11	−
